Test results taken from article PMC3983792 (Nature, 2012).

Assays:
[1] = biological target: menin-MLL1_(MBM-LBM) complex (human) (UniProt O00255); experiment: ITC
[2] = biological target: T1, meninΔ (human menin with the unstructured loop, residues 460–519, deleted) (human, UniProt O00255-2 1-610, residues 460–519 deleted); experiment: ITC
T1 sequence (looked up): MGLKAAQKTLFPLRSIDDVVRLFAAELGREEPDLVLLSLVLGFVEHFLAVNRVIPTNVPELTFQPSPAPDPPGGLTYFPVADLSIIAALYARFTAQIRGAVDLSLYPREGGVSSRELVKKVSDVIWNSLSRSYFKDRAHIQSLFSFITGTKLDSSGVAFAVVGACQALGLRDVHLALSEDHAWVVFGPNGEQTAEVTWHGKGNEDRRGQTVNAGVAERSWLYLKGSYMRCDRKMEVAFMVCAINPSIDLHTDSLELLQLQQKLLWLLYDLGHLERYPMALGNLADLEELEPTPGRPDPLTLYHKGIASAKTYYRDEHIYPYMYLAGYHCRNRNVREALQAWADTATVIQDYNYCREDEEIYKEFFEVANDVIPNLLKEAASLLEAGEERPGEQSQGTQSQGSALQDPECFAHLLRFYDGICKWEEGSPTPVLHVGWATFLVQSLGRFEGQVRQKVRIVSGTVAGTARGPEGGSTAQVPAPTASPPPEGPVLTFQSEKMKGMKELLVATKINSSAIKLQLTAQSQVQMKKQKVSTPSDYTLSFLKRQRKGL

full-length menin [3] = biological target: T2, full-length menin (human, UniProt O00255-2 1-610); experiment: ITC
T2 sequence (looked up): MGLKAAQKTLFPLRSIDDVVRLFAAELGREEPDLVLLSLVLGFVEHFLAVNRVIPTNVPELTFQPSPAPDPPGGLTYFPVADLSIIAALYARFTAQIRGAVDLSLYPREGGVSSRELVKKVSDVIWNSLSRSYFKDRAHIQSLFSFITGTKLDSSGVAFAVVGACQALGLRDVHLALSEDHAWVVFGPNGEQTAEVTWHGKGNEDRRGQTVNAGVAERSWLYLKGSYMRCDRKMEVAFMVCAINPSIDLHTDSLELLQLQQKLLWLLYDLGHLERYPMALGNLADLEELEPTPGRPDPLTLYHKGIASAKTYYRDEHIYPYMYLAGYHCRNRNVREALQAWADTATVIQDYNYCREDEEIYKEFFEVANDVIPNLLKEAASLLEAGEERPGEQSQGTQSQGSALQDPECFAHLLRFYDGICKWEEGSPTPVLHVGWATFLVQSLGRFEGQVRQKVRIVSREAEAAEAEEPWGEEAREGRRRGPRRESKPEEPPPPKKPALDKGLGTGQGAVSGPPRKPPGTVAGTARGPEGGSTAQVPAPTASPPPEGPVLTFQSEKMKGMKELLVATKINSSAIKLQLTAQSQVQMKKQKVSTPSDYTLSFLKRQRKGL

[4] = biological target: T1, meninΔ (human menin with the …); experiment: crystal structure
full-length menin [5] = biological target: T2, full-length menin; experiment: pull-down

“LEDGFIBD (IBD domain of LEDGF) (domain or fragment)” showed a Kd [1] of 470 nM.

B1: MLL1MBM (menin-binding motif, residues 6–25 of MLL1) (peptide, UniProt Q03164 6-25, looked up)
peptide: RWRFPARPGTTGGGGGGGRR
B1 was tested, and the Kd [2] was 82 nM and the binding result (full-length menin [3]) was “binds”.

B2: MLL1MBM with 24RR25 substituted with two glutamates (peptide, UniProt Q03164 6-25, looked up)
peptide: RWRFPARPGTTGGGGGGGEE
For B2, the “fold decrease in binding affinity against wild-type MLL1MBM” value [2] was 21 fold.

B3: MLL1_(MBM-LBM)Δ (MLL1 residues 6–153 with loops 16–22 and 36–102 deleted) (domain or fragment, human, UniProt Q03164 6-153, looked up)
chain: RWRFPARPGTGRRGLGGAPRQRVPALLRVGPGFDAALQVSAAIGTNLRRFRAVFGESGGGGGSGEDEQFLGFGS
B3: binds [4].

B4: MLL2MBM (MLL2 residues 16–35) (peptide, UniProt Q9UMN6 16-35, looked up)
peptide: ARGRFPGRPRGAGGGGGRGG
Work on B4 yielded a Kd [2] of 120 nM.

B5: JunDMBMΔ (JunD residues 27–47 with residues 40–45 deleted) (peptide, UniProt P17535 27-47, looked up)
peptide: SPGRLFPGAPPTAKK
B5: binds [4].

B6: JunDMBM (JunD residues 27–47, menin-binding motif) (peptide, UniProt P17535 27-47, looked up)
peptide: SPGRLFPGAPPTAAAGSMMKK
B6: binds [2].

B7: GST-fused JunD (residues 1–150) (domain or fragment, human, UniProt P17535 1-150, looked up)
chain: METPFYGDEALSGLGGGASGSGGSFASPGRLFPGAPPTAAAGSMMKKDALTLSLSEQVAAALKPAAAPPPTPLRADGAPSAAPPDGLLASPDLGLLKLASPELERLIIQSNGLVTTTPTSSQFLYPKVAASEEQEFAEGFVKALEDLHKQ
B7: binds (full-length menin [5]).
